Measurements published in the domain aggregation screens of Martell et al. (2025).

Assay: soluble fraction after stress (log2 fold change); higher = more stays soluble; pooled small domains, quantitative proteomics
Conditions: stress: 50 degC
How it was run: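 Quantitative proteomics served as the high-throughput read-out for pooled custom libraries of small protein domains. Each was stressed at 50°C. Aggregation propensity is expressed as the base-two log fold change in soluble protein after stress. A higher value means a larger share of the protein remains in solution.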

Sequence	soluble fraction (log2)
HMLPSWLPTDAWEAFLEARVAMKARPTERAKGLLLGELSKLVSQGQDARAVLEQSVQRGWRGLFPVK	-1.52
HMDNFQFIGYSQQQGQIAVAWIKSLDNGRLVRVEVSDSLEGWRVSDISAQGVNLTKGQQWLMLKRL	-1.73
HMHQIFAETVFEDIAFGPRNKGFNEEEVAKQVREAMAFVGLDYDTYAQRSPFQLSGGQMRRVAIAGVVA	-0.0418
HMEALDPLTAREQEVLEMILSGKSNREIAAELHITENTVKTHAQSIYSKYDVRGRAKLISLLLKGEA	-0.102
HMQRLSRREIEVLHWIAEGKSDWQIGQILSISAKTVNYHTENLKRKFGVATRMQAVVSAIKQGAFVPGE	-4.43
HMATIGVGSKVTLTTYVDWVGNGLLKTRDFYFVSELNGKRAVLRADSMNGAIYAAVNIDNLRI	-2.56
HMQRVSDKVAAQLRVLVQEQQLKPGDRLPAERALAVQLGVSRTALREAIAQLASQGLLTARVGGGTYVAEP	-0.307
HMTPDDSYIAGYAAGILKHQFLIDAPELIVRNGTITIPADKVSAGDRAKVVQILSGIPGVTRVEVG	-0.0502
HMRTQEELVAEVREQMEAMGTIATLYVELYESSEERLVGGVIFEDERHYRFVYEDGLLHYEEEK	-0.206
HMKRELFVEPGMRLEHTPSKTSGPVVSFIEGVIVVIKDQLGSEHRFDPVPGFFRHEGDLVALRSPLL	-0.282
HMEKMLENIDLKAAVEALPEREKKVILLRYYRGMTQDAAAKVMKVSQVQISRIEKRAIEILREKL	-1.52
HMSHFRMLPSITEADAFLKSRSLPAGLEVREQVDAFLAQARQTLALAQEAPWLSKQEVLETLADEFVQTS	-0.496
HMAIDVQELARTRLRSLRTTLGYSLDELAARTHLSPSTISRLETGKRSLSLDVVVPLAQALHVSLDVLFEA	-2.68
HMLSAGTTEQRLAMLQYQWEKQSETYSALGPNNGVVTLGQIRNTMAKIAELAGFKDAAQFWMPVPMDYDV	-0.323
HMTLVKRSAMVTAWSEFAGGRVNSKLIALQNGKAGDWIELENPQSGRKLRGRVQSDGSVRLGS	0.169
HMDIPDIGHNVRIEVDGHNGKTTHEGIILHPAAPNHITIKLANGYNASYKLEEIINIEILGELGDDSKI	-0.0692
HMGTVKWFNATKGFGFIVPSDGGKDVFVHITAVQKAGLQGLNEGQKVSYEVAMERGKAAATNLR	-0.726
HMRTLGADLRALRKARGLTLAGMADNMGKSVGWMSQIERDISEPSISDLRALAKLLDVSVSSLFR	-2.23
HMGEAYVVPNVKNKTLGEAQLALHNQKLEGLVVDSSYVKGLPDGMILDQNPAGGARVKEGRTIYLTITTS	0.00953
HMVNPHPVYRSWGLLYVEARDGDSLESIAKEFGFSVKKLAKYNEVPKDYPLEAGDIVYLEKKKK	-1.59
HMIKVASVDGASDELAHEIREIMPLDFPVSYFDLDIKYLHKVLNDIPAVESAAIKVTVSGVLQIDISER	0.43
HMDTKLFNYGVGKHAYISWNEGGKRTAYIGFGNDGADVLTINNVKQGGSLGIYKDKITLNSQTVLTD	-0.0296
HMTSRLLTPRQRYVFDTAMKEGFYDVPRRITLTELASVLDVAKSTLSAQLHRIESTVHHAYADDIRRRS	-2.35
HMQKPELLAPAGSLEKAKTAFKYGADAVYMGTSNLSLRSRVTVDDDELIKTIEYAHSINKKVYAALNIYAR	0.00596
HMPKLSNNHMAVWQAIRSRTAKGEPSTRAVIRDDLKAAGMDTSKHFSRWLTKLIDLGMVVKDGENLSIR	-0.16

Sequence	soluble fraction (log2)
HMRLPNGYGGVTKLSGRRRKPYMVRKTIGWHIDEKTDKKVQDYVVIGYAATKSEALQMLADYNNNPFDV	-3.2
HMNLLDYTTLYVTSDGKSVSFGIAGKEIPVSYIAQEAPGTVVIDDTIRIPRKYDMEYILKRFNES	-1.03
HMIDPHGSLTLDLRPRDARVEIIDSNKTYKPGVRLPMGEYAIAVSRRGYISETKRINIEYGDNRERVAL	0.0829
HMLNMSVYDKQLLRAVENNPFISQRELARELHWNVDRVKYYMKKWKDKGGLRHVGSSHKGYWEVLVRIEEK	-0.886
HMAAKADAVKKAIAAIGKVDASEDSKAKVEAARKAYAALTEDQKKLVEASQLKLLTEAEAAYQQAVEESKK	0.0525
HMNQILDFTREVKNLPEQDKIKIVEALWSIIYSNKDADIYETNLMRRLAGLLYIDNKTMGDIKEKIKQNL	-0.601
HMGRKRLADYGLNDTEQKIVRKIADGLSNREIAQALYLSEGTVKNYITDILGKLELRDRTQIAIFYLREIG	-0.0293
HMNTLRFPEGTPEKDRMSIILASYNSGIGHVNDARRLARLNGEDPNSWEVVARYLQLKAQPEYYESEAVK	-0.0728
HMTAYENSIPLNWVIQKGDAKGLPLSANTARLLIDIVGIDLMDLDHELEKISLYLSGESITEEMIKEHIRG	-0.668
HMKKPLEYIDVDKREDFPPVPNGMRYIHFYGGTKNYRAYIAPEDISRADFMEQYPEYVPEHN	0.184
HMDTIAEFIAELTPLEQKVFHVYYEKGQSLKDTAQQAEITSTSARGALDRIRAKGRHFHLAVILFIG	-0.622
HMTPVIINESGGDQDTRIEGLNDNNLLYVDASTDRVGVGVATPTQKLDVNGDVAISGGSLYLSQ	-0.00396
HMGPGDTTIPTTIIGMSLEEARNELSAAGLLVARIIPVDSNSRTGTVLKITPDAGSIIKAGSGVELEIAS	0.0765
HMTGEERRMNTADLYRRRGMELFKRKIYVDAIDSLKVSLEYEDNATTRYYLDLATKRYQDLKIS	-1.12
HMPKMISPAQIKAIGAKTNNIAKASGVEQAQVYQSAVAHLGINNKSTKELTSQEASKVIEYLSTL	0.0861
HMELPVNSIRVPDVVGLSLREAMQAMTDAGVPWQSVQAKGVGFVSRQSPEAGTVTQLRRVRLELKLF	-2.58
HMKTTSYAKLLRFLRTERDLSQITVAKQLGLSRASYLALEHGSRELSLSEAVKVTTLYGIRIDDLIVNH	-3.48
HMYGTQTVNRGAVQPGMLVKHKDSTWTASANARGRLYLHRGVEMTYTRDLLVEVYLNGLGNGL	0.102
HMFMVAGHLSEKNGYFYAVINYNDSLGNRKTKWMSTGLTVKGNKKRAEAILAEKRRTFQPDEPV	-1.69
HMPKITTIHIDPEKISKVIGPGGKTVKKIIEETGAKIDIEDTGKIFIAAVNTEAANKAIDMINGIVA	0.103
HMRHDSEGYYRLIGVPPDADDAELKEAAKKRLMEAHPDHGGSEDEFVEVYRAYRTLTDPSARAEYDARP	0.307
HMVDIVLDILKIVAEKQPGNQFSQSILMQYQERGGLSKKQLEGLYGKAKRIPEIPQNKLATLEAIILR	-1.41
HMPYSAAVTFLDDAKQPMVNYNYRLIAENGIEVSGITDEFGKTQPIQTDQREKVDLYIADLPN	0.495
HMETYNLDVGDSAVLQYQNVSRISVGNPDVLDAIPLDKSQILLTGKATGGAALIVWDSKGMHMEKVMVHPA	-0.156
HMENYYMPVVAGQSEQDAKSMLNAMKLSLSIQVQEQESDSVAKGLAIGTSPAAGSQIRKGSSVILYISKGA	-0.0609

Sequence	soluble fraction (log2)
HMNHYTEEYILKRMKDFFTTHAYITRRDIESLFGFRRSYATKWLKHFRESGVLKQSGPVNSAVYLL	-2.83
HMDYSWNFFIGFSVVDKVAGNLGTIEEIDDKTINTLFLVKNDDEDLIIPATEDFVEKIDAKKRILYLNLPE	-1.56
HMLMKKTITHEIELLEFLKQIFPQSSTNKLRKMLSNGRIKINSEIVHKAKYKLQENDTFELLDNPT	-0.488
HMIKEVEYSQFLQMTDQGEVGKVEINEQENSILFTDKAEKNIYKTGMVEDAELSMRLYEAGIPFSGQI	-0.0245
HMLPANGEAIYHYLASGAIKGVGPVTAQRIVDKFGEDTFDVLENNPLWLAEIKGITRKTAENIGAAFAAQF	≥ 0.62
HMPNSIKAPAYLHNIARIYDHVLIDVEKASSAYEKLIKKYPNHPLSINAKLYLENAFNRSDEELLNMIKEN	-0.798
HMQPPVDGNEIMEIFGIKGSPVIGVIKSTIKNAILDGIIAPNDREAALELMFRIADENGLKPVVTQTQ	0.101
HMQNNTIAFSKFLQEVDNGRVVQVEIQGNNINGILSDGSKFNTYSPNYPALVEKLSEKNVNIVASPV	0.0149
HMYLYHDLSDEAKAMGDEYVSVEHLVLALIRYPNNAVKELFREFGITRERFLQVLSTIRGNQRVTSDNPEA	0.0309
HMEMTGAHLRKKIRAKGFTFQQIADAIGESKQNLSQILSTNNIKTGTLERIAAAMGESVSYF	-0.191
HMTSLVRTSNLDGFEPLARSIGVDPVMELMRFGIPPDALIRENMFISFIGFIRLLEHTALAG	0.103
HMKIMSLSERHQKILELLKVNGIVSVNSLSRQLNVSSVTIRKDLGLLEEKKLLYRSHGGAIQID	-3.08
HMNNVRIEHIDTIGTVRLHKKRGVKRVSLRIHQSGEIRVTQPLYLPFSAGVLFAKSHTEWIMKQKQK	-0.000591
HMPEPPRVGETLAALRQDRALSLDELSRQAGVSKSMLSQIERNQANPTVAVVWRLANALGVPMAELLGA	-0.108
HMLELDRTNLLGVFGSKSNPYALIMLSNGEMLKLSIGDQFLGWRVYAIDQTTVHVQNGKNQEILRIP	-1.13
HMVPDVVGKDYALAQAELEGANLVVAKGSSRYDDTLPAGVVLATDPKVGTVVKPGAKVTVILSK	0.251
HMSVKSVSLRKISYKVRRGDSLYNIAKNFSLSINDITHWNSINKKSYLQPGQRLTLYINPRN	-1.71
HMAVKTEHGRIWKALPEGQDGYREDVPMFTSKSMYDGSAGIGIFLIRLYEATSDERWLKEAEEAAAHII	0.351
HMSINTLEVHSLKALENLAESPLLISFSYENEEYNYRLASSDVSLLKKISSNYSDDSDIKGLRFIS	-0.992
HMAAGLTPKQKAFADNYIKNGGNAAEAARAAGYSLKNVGANAGKLLKNPKIAAYIAEKQAELDRRNGT	0.155
HMLAHSEFGARLRETRKRLGLSQSELGGDRYSGSYISHLESGRRAASAEVIEFLAGRLGVEVEELGM	-0.171
HMLAKNDSGLNNHTFNAIRDALLEALADGPAEAKKLTENISFPSDKIITVIRFLADHDDRFSLEDGILSLT	-0.515
HMGNKWALLVVFILNENGSTRFNQLARQIPDISTKVLSNTLQILEADGLVKRTVFPEVPIRVEYELTATGK	-3.64
HMEFDVELTSFEEAKKLKVIKEVKDVTGLSLGEAKDLVMGAPKAIKTGVSKEEAEAIKTQIEAAGAVVTI	0.122
HMKEVVVPDYFLKQLQKNKKAFITFNNFSPSHKREYVEWITEAKTEETKNRRMKSAIEWMSEGKSRNWKYI	0.0292
